Reference: the nanobody polyreactivity screen of Harvey et al. (2022)

Test: yeast display, Sf9 membrane polyspecificity reagent, FACS + sequencing; frameworks hold sequencing errors
Method in brief: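 In a synthetic yeast display library (Saccharomyces cerevisiae BJ5465), nanobody expression was induced with galactose for 36–48 hours. FACS gates were set low and high (top ~1%) using anti-HA fluorescence for expression and streptavidin fluorescence for binding of the Sf9 membrane reagent. Each polyreactivity label is drawn from the gate of origin.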

Sequence	polyreactivity (PSR sort gate)
QVQLVESGGGLVQAGGSLRLSCAASGSIFVGYAMGWYRQAPGKEREWVAAIRSGGSTKYADSVKGRFTISRDNAKNTVYLQMNSLKPEDTAVYYCNVEVHPYYWVDNFQRFPVLHNYWGQGTQVTVSS	low polyreactivity
QVQLVESGGGLVQAGGSLRLSCAASGRIFGAYAMGWYRQAPGKEREFVAAITWRGGSTYYADSVKGRFTISRDNAKNTVYLQMNSLKPEDTAVYYCAADQFTGSVWAYYYWGQGTQVTVSS	high polyreactivity
QVQLVESGGGLVQAGGSLRLSCAASGRIYGAYAMGWYRQAPGKEMEMVAAITSAGSTLYADSVKGRFTISRDNAMNTVYLQMNSLNPEDTAVYYCAADGIARAYVLFDAYDFLYDYWGQGTQVTVSS	low polyreactivity
QVQLVESGGGLVQAGGSLRLSCAASGSTFIAYAMGWYRQAPGKESELVAAITSGDGTYYADSVKGRFTISRDNAKNTVYLQMNSLKPEDTAVYYCAVGYYWNEPLYWYGDFDYWGQGTQVTVSS	high polyreactivity
QVQLVETGGGLVQAGGSLSLSCAGSVSTFWFYPMGCYRQATGKEREFVATISRSGGSTHNADSVKGRFTISSDNAKNTVYLQMNSLKPEDTAVYYCAKYQRYYSNDYNYWGQGTQVTVSS	high polyreactivity
QVQLVESGGGLVQAGGRLRLSCAASGSNFTYYAMGWYRKAPGKEREFVAAISRRGGSTYYADSVKGRFTISRDNAKNTVYLQMNSLKPEDTAVYECNARYTGSSLYYWGQGTQLTVSS	high polyreactivity
QVQLVESGGGLVQAGGSLRLSSAASGFTFRGYGMGWYRQAPAKERELVAAITSSGGSTYYADSVKGRFTISRDNAKNTVYLQMNSLKPEDTAVYYCAADRYTRYRYNYWGQGTQVTVSS	high polyreactivity
QVQLVESGGGLVQAGGSLRLRCAASGSIFGLYAMGWYRQAPGKERELVAAINQSGGSTTYADSVKGRCTISRDNAKTPVYLQMNSLKPEATAGYSCPADSVGDYGYQVYASWGYEDEYCGQGTQVTVSS	low polyreactivity
QVQLVESAGGLVQAGGSLRLSCAASGRTFQYYALGWYRQAPGKERELVAAISWSGGSTYYADSVTGRFTISRDNAKNTVYLLMNSLKPEDSAVYYCAKTSSGRKFYWGQGTQVTVSS	high polyreactivity
QVQLVESGGGLVQAGGSLRLSCAASGGTIVWNAMGWYRQAPGKERELVAAITWSGGSTYYADSVKGRFTISRDNAKNTVYLPMNSLQPEATAVYYCNADRFGRAHVYPEFDYWGQGTQVTVSS	low polyreactivity
QVQLVESGGGLVQAGGSLRLSCAASGFIFYDYAMGWNRQAPGKERELVAAISSGGSTNYADSVKGRFTISRDNAKNTVYLQMNSLKPEDTAVYFCAADDRSYASWKRDYDYWGQGTQVTVSS	low polyreactivity
QDQLVESGGGLVQAGGSLRLSCAASGSTFPNNAMGWYREAPGKERELVATITTGGSTYYADSVKGRFTISRDNAKNTVYLQMNSLKPEDTAVYYCAADHLSYRRRYEYWGQGTQVTVSS	low polyreactivity
QVQIVESGGGLVQAGGSLRLSCAASGLIFDANAMGWYRQAPGKERELVAAISNGDSTYYADSVKGRFTISRDNAKNTVYLQMNSLKPEDTAVYYCNARIIYRKWLLRSGTFNYWGQGTQVTVSS	low polyreactivity
QVQLVESGGGLVQAGGSLRLSCAASGGIFSSYAMGWYRQAPGKERELVADISWNGDSTYYADSVKGRFTISRDNAKNTVYLQMNSLKPEDTAVYYCNAQWYFTPGTPVDYWGQGTQLTVSS	low polyreactivity
QVQLVESGGGLVQAGGSLRLSCAASGFIFYWYAMGWYRQAHGKERELVARITQSVGRTYYADSVKGRFTISRDNAKNTVYLQMNSLKPEDTAVHYCATDYGSYWSGAAYERYDYWGQGTQVTVSS	low polyreactivity
QVQLVESGGRLVQAGGSLRLSCAASGRIFGDYAMGRYRQAPGKERDLVAAISWSDGSTYYADSVKGRFTISRDNAKNTVYLQMNSLTPEDTAVYYCPAYGWGYRYVDVVVSDFYYWGQGTQVTVSS	low polyreactivity
QVKLVESGGGLVQAGGSLSLSCDASGFISVQNALGCYRQAPGKERELVASITSDGSTYYADSVKGRFTISRDNAKNTVYLQMTSLKPEDTAVYDCAKVNNSYSGFTTTLEYWGQGTQVTVSS	low polyreactivity
QVQLVESGGGLVQAGGSLRLSCAASGRISGWNAMGWYRQAPGKERELVAASTWSDGSTYYADSVKGRFTISRDNAKNTVYLQMNSLKPEDTAVYYCAAEYGWYAGDPYYGYDYYWGQGTQVTVSS	high polyreactivity
QVQLVESGGGLVQAGGSLRLSCAASGRIFGTNAMGWYRQAPGKERELVADITSGGSTNYADSVKGRFTISRDNAKNTVYLQMNSLKPEDTAVYDCAADVIGDLRWYRDEYWGQGTQVTVSS	low polyreactivity
QVQPVESGGGLVQAGGSLRLSCAASGLTFYRYAMGWYRQAPGKERELVAAISSGSSTYYADSVKGRFTISRDNSKNTVYLQLNILKPEDTAVYYCAARSIDAHGSRYGYWGQGTQVTVSS	high polyreactivity
QVQLVESGGGLVQAGGSLRLSCAASGLIFEVNVMGWYRQAPGTERELVAAITTGGGSTYYADSVKGRFTISRDNAKNTVYLQMNSLKPEDTAVYYCATDYSSYLYDYYTGVGGYEYWGQGTQVTVSS	low polyreactivity
QVQVVESGGGLVQAGGSLRLSCAASGSISDSYAMGWYRQAPGKERELVAAITSGDSTYYADSVKGRFTISRDNAKNTVYLQMNSLKPEDTAVYYCAKRVSRVRGYGFTDWSEYDYWGQVTQVTVSS	low polyreactivity

Sequence	polyreactivity (PSR sort gate)
QVQLVESGGGLVQARGSLRLTCAASGYIFSAYAMGWYRQAPGKERELVAAISRGGSTKYADSVKGRFTISRDNAKNTVSLQMNSVKPEDPAVYDCATVVYHRRPPRTGHEYWGQGTQVTVSS	high polyreactivity
QVQLVESGGGLVQAGGSLRLSCAASGSTITDYTMGWYRQAPGKERELVAVISQSGGSTYYADSVKGRFTISRDNAKNTVYLQMNSLKPEDTAVYYCAARTYWRGYRGQKYDYWGQGTQVTVSS	high polyreactivity
QVQLVESGGGLVQAGGSLRLSCAASGGTFERNAMGWYIQAPGKERELVAGMSKISGRTYYADSVKGRFTISRDNAKNTVYLQMNCLKPEDTAVYYCNKVSRSSYGYWGQGTQVTVSS	high polyreactivity
QDQLVETGGGLVQAGCSLRLSCAASGSIFTGYTMGWYRQAPGNEREFVAAIRATGGSTYYADSVKGRFTISRDNAKNTVYLQMNSLKPEDTAVFYCAVRSGGGSVRKRYGYWGQGTQVTVSS	high polyreactivity
PVQLVESGGGLVQAGGSLRLSCAASGSTFDAYDLGWYRQAPGKERELVAAINWSGGITYYADSVKGRFTISRDNAKNTVYLQMNSLKPEDTAVYYCNADASFYSRVNYWGQGTQVTVSS	high polyreactivity
QVQLVESGGGLVQAGGSLRLSCAASGRIFQRYAMGWYRQAPGKERELVAVITKRGGNTYYADSVKGRFTISRDNAKNTVYLQMNSLKPEDTAVYYCATRSGRSTGDYWGQGTQVTVSS	high polyreactivity
QVQLVESGGGLVQAGGSLRLSCAASGRIFGYYAMGWYRQAPGKERELVAAISYSGGRTYYADSVKGRFTISRDNAKNTVYLQMNSLKPEDTAVYYCNARSRSYKWYTRTGYGYDYWGQGTQVTVSS	high polyreactivity
QVQLVESGGGLVQAGGSLRLSCAASGSTFSSYGMGWYRQAPGKERELVASITIRGGSTYYADSVKGRFTISRDNAKNTVYLQMNSLKPEDTAVYYCAADVTNRGTWVIYGYYYWGQGTQVTVSS	low polyreactivity
QVQLVESGGGLVQAGGSLRLSCAASGSIFCSYAMGWYRQAPGKERELVAAITWSGGNTYADSVKGRFTISRDNAKNTDYLQMNSLKPEDTAVYYCAADPAHGTKWYVYPSHDDYWGQGTQGTVSS	low polyreactivity
QVQLVESGGGLVQAGGILRLSCAASGFTIYYYAIGWYRQAPGKERELVASITSGGSTYYADSVKGRFTISRDNAKNSVYLQMNSLKPEDTAVYYCAKTRFHYKEGDYWGQGTQVTVSS	low polyreactivity
QVQLVESGGGLVQAGGSLRLSCAASGRLFDSNARGWYSQAPGKERELVAAISSGASTYYADSVKGRFTISRDNAKNTVYLQMNSLKPEDTAVYYCAVRLRYAYRARGNYWGQGTQVTVSS	low polyreactivity
QVQLVESGGGLVQAGGSLRLSCAASGSTFSYYPMGWYREAPGQERELVAAISSRGSSTYYADSVKGRFTISRDNAKNTVYLQMNSLKPEDTAVYYCNAERVVYKWYDYWGQVTQVTVSS	high polyreactivity
QVQLVESGGGLVQAGGSLRLICAASGRTFYGYAMGWYRQAPGKERELVAAISTGGGRTYYADSVKGRFTISRDNAKNTVYLQMNSLKPEDTAVYYCAARRAYPHYRVDYWGPGTQVTVSS	high polyreactivity
QVQRVESGGGLVQAGGSLRLSCAGSGSTFAQNGMGWYRPAPGKERELVAAIRWNGGSTYYADSVKGRFTISRDNAKNTVYLQMNSLKPEDTAVYYCAARHPLYRVQHEDWGQGTQVTVSS	low polyreactivity
QVQLVESGGGLVQAGGSLRLSCAASGSIFTNYAMGWYRQAPGKERELVAAISVGGGRTYYADSVKGRFTISRDNAKNTVYLQMNSLKPEDTAVYYCAASRRTRSMNYWGQGTQVTVSS	high polyreactivity
QVQLVESGGGLVQAGGSLRLSCAASGSTFDSYGMGWYRLAPGKERELVAPSTSRGASTNYADSVKGRFTISRDTAKNTVYLQMTSLKPEDTAVYYCNREVPWWLYKYDGHDYWGQATQVTVSS	low polyreactivity
QVQLQESGGGLVQAGGSLRLSCAASGTILYSLGMGWYRQAPGKRREFVASITWGTTTNYAESVKGRFTISRDNAKNTVYPQMNSLKPDVTAVYDCAAPPFGDSSYHYWGQGTQVTVSS	low polyreactivity
QVQLVESGGGLVQAGGSLRLSCAASGRTFDGNAMGWYRQAPGKEGEFVATISTDGGSTHYADSVKGRFTISRDNAKNTVYLQMNSLKPEDTAVYYCAADTPWYDDNYDYWGQGTQVTVSS	low polyreactivity
QVQLVESGGGLVQAGGSLRLSCAASGFTIESNAMGWYRQAPGKERELVAAISASGDSTYYADSVKGRFTISRDNAKNTVYLQMNSLKPEDTAVYYCAADRYYGGWRFDHWGQGTQVTVSS	low polyreactivity
QVQLVESGGGLVQAGGSLRLSCAASGRIFTVNAMGWYRQAPGKERELVASITGRGTRTYYADSVKGRFTISRDNAKNTVYLQMNSLKPEDTAVYYCAAAVARVKYDSKGYYWGQGTQVTVSS	high polyreactivity
QVQLLETGGGLVQAGRSLRLSCAASGFIFRANAMGWYRQAPGNERELVATISRSGGSTSYADSVKGRFTISRDNAKNTVYLQMNSLKPEDTAVYYCNKRTPYLRPILDYWGQGSQVTVSS	high polyreactivity
